Each block holds one binder with its values, some of them ahead of it.
Legend:
Experiment in all cases: two-hybrid library CCmax;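 also: natural log of median RNA to DNA barcode read ratio; higher means stronger binding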
[1] = target: T1, 4H3631-AA; details: mean of both orientations
T1 chain: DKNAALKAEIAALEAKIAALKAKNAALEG

[2] = target: T2, 4H1594-AA
T2 chain: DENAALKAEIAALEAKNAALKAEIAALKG

[3] = target: T3, 4H3413-AA; details: mean of both orientations
T3 chain: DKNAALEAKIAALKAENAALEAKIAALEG

[4] = target: T4, 4H340-AA; details: mean of both orientations
T4 chain: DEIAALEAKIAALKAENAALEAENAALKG

[5] = target: T5, 4H2198-AA; details: mean of both orientations
T5 chain: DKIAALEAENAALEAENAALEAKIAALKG

[6] = target: T6, 4H2553-AA; details: mean of both orientations
T6 chain: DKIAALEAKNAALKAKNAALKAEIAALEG

[7] = target: T7, 4H3056-AA; details: mean of both orientations
T7 chain: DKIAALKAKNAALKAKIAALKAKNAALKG

[8] = target: T8, 4H3378-AA; details: mean of both orientations
T8 chain: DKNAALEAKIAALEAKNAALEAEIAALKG

[9] = target: T9, 4H1874-AA; details: mean of both orientations
T9 chain: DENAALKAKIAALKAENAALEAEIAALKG

[10] = target: T10, 4H32-AA; details: mean of both orientations
T10 chain: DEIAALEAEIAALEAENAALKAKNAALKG

[11] = target: T11, 4H2620-AA; details: mean of both orientations
T11 chain: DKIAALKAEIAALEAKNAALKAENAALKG

[12] = target: T12, 4H3865-AA; details: mean of both orientations
T12 chain: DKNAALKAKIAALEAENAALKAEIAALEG

[13] = target: T13, 4H384-AA; details: mean of both orientations
T13 chain: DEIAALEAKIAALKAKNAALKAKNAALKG

[14] = target: T14, 4H3697-AA; details: mean of both orientations
T14 chain: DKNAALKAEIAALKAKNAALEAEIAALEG

[15] = target: T15, 4H2611-AA; details: mean of both orientations
T15 chain: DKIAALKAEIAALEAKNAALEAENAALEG

[16] = target: T16, 4H3162-AA; details: mean of both orientations
T16 chain: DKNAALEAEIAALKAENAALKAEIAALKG

[17] = target: T17, 4H3718-AA
T17 chain: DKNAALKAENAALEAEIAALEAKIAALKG

[18] = target: T18, 4H982-AA; details: mean of both orientations
T18 chain: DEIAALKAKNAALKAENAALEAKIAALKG

[19] = target: T19, 4H2907-AA; details: mean of both orientations
T19 chain: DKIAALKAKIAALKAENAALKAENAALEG

[20] = target: T20, 4H3588-AA; details: mean of both orientations
T20 chain: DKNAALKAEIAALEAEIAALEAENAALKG

[21] = target: T21, 4H1629-AA; details: mean of both orientations
T21 chain: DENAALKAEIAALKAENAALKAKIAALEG

[22] = target: T22, 4H3133-AA; details: mean of both orientations
T22 chain: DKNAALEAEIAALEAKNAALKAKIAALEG

[23] = target: T23, 4H2648-AA; details: mean of both orientations
T23 chain: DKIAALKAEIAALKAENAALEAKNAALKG

[24] = target: T24, 4H3606-AA; details: mean of both orientations
T24 chain: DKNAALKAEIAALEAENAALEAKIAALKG

[25] = target: T25, 4H697-AA; details: mean of both orientations
T25 chain: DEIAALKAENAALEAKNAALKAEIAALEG

[26] = target: T26, 4H1845-AA; details: mean of both orientations
T26 chain: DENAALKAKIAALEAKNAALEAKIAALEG

[27] = target: T27, 4H2949-AA; details: mean of both orientations
T27 chain: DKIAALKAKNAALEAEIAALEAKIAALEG

[28] = target: T28, 4H3427-AA; details: mean of both orientations
T28 chain: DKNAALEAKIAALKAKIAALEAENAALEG

[29] = target: T29, 4H335-AA; details: mean of both orientations
T29 chain: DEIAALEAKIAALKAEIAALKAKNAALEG

[30] = target: T30, 4H2883-AA; details: mean of both orientations
T30 chain: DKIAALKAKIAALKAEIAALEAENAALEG

[31] = target: T31, 4H906-AA; details: mean of both orientations
T31 chain: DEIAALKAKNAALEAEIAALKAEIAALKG

[32] = target: T32, 4H2575-AA; details: mean of both orientations
T32 chain: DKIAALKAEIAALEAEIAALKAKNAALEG

[33] = target: T33, 4H342-AA; details: mean of both orientations
T33 chain: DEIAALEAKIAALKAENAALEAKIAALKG

[34] = target: T34, 4H881-AA; details: mean of both orientations
T34 chain: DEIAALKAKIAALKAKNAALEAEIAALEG

[35] = target: T35, 4H2165-AA; details: mean of both orientations
T35 chain: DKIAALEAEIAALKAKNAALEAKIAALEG

[36] = target: T36, 4H993-AA; details: mean of both orientations
T36 chain: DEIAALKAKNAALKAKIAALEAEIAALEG

[37] = target: T37, 4H2078-AA; details: mean of both orientations
T37 chain: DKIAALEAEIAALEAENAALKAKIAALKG

[38] = target: T38, 4H2277-AA; details: mean of both orientations
T38 chain: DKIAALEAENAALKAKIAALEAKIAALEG

[39] = target: T39, 4H3921-AA; details: mean of both orientations
T39 chain: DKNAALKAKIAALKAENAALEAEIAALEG

[40] = target: T40, 4H2505-AA; details: mean of both orientations
T40 chain: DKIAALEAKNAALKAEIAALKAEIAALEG

[41] = target: T41, 4H48-AA; details: mean of both orientations
T41 chain: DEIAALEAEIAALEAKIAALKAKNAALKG

[42] = target: T42, 4H794-AA; details: mean of both orientations
T42 chain: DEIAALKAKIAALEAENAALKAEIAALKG

[43] = target: T43, 4H3627-AA; details: mean of both orientations
T43 chain: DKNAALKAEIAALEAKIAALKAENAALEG

[44] = target: T44, 4H1636-AA
T44 chain: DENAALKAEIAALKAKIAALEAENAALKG

[45] = target: T45, 4H3343-AA; details: mean of both orientations
T45 chain: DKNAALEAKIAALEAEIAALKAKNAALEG

[46] = target: T46, 4H2617-AA; details: mean of both orientations
T46 chain: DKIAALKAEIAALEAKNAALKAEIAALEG

[47] = target: T47, 4H717-AA; details: mean of both orientations
T47 chain: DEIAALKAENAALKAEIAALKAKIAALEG

[48] = target: T48, 4H3844-AA; details: mean of both orientations
T48 chain: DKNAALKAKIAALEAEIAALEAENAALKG

[49] = target: T49, 4H2151-AA; details: mean of both orientations
T49 chain: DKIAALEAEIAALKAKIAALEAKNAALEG

[50] = target: T50, 4H566-AA; details: mean of both orientations
T50 chain: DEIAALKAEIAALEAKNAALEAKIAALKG

[51] = target: T51, 4H2466-AA; details: mean of both orientations
T51 chain: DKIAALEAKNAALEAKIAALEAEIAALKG

[52] = target: T52, 4H3112-AA; details: mean of both orientations
T52 chain: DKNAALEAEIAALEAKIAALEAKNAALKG

[53] = target: T53, 4H2354-AA; details: mean of both orientations
T53 chain: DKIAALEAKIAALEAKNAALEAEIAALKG

[54] = target: T54, 4H2190-AA; details: mean of both orientations
T54 chain: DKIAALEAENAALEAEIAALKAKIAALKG

[55] = target: T55, 4H2729-AA; details: mean of both orientations
T55 chain: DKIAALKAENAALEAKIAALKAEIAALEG

[56] = target: T56, 4H3655-AA; details: mean of both orientations
T56 chain: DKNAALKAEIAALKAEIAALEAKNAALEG

[57] = target: T57, 4H234-AA; details: mean of both orientations
T57 chain: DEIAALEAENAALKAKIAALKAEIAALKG

[58] = target: T58, 4H2642-AA; details: mean of both orientations
T58 chain: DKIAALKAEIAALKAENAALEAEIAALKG

[59] = target: T59, 4H678-AA; details: mean of both orientations
T59 chain: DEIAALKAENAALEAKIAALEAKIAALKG

[60] = target: T60, 4H1867-AA; details: mean of both orientations
T60 chain: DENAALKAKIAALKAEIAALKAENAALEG

[61] = target: T61, 4H2393-AA; details: mean of both orientations
T61 chain: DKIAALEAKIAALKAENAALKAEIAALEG

[62] = target: T62, 4H454-AA; details: mean of both orientations
T62 chain: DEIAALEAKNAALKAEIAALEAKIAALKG

[63] = target: T63, 4H2837-AA; details: mean of both orientations
T63 chain: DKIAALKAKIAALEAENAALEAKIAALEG

[64] = target: T64, 4H605-AA; details: mean of both orientations
T64 chain: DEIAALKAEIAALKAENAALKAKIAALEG

[65] = target: T65, 4H317-AA; details: mean of both orientations
T65 chain: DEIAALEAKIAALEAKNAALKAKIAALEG

[66] = target: T66, 4H780-AA; details: mean of both orientations
T66 chain: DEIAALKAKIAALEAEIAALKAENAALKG

[67] = target: T67, 4H2944-AA; details: mean of both orientations
T67 chain: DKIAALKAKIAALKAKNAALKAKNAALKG

[68] = target: T68, 4H2754-AA; details: mean of both orientations
T68 chain: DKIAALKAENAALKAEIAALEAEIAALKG

[69] = target: T69, 4H429-AA; details: mean of both orientations
T69 chain: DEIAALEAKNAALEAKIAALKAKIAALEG

- interaction score [1]: -1.31
- interaction score [2]: 1.19
- interaction score [3]: 1.73
- interaction score [4]: 0.908
- interaction score [5]: -1.61
- interaction score [6]: -1.6
- interaction score [7]: -2.01
- interaction score [8]: -0.189
- interaction score [9]: 2.24
- interaction score [10]: -1.19
- interaction score [11]: -1.5
- interaction score [12]: 1.15
- interaction score [13]: -1.64
- interaction score [14]: 0.415
- interaction score [15]: -1.7
- interaction score [16]: 0.0257
- interaction score [17]: -1.13
- interaction score [18]: 1.3
- interaction score [19]: -1.36
- interaction score [20]: -1.26
- interaction score [21]: -0.822
- interaction score [22]: -2.2
- interaction score [23]: -0.627
- interaction score [24]: 1.96
- interaction score [25]: -2.03
- interaction score [26]: -0.968
B1: 4H1594-AA (peptide)
chain: DENAALKAEIAALEAKNAALKAEIAALKG

- interaction score [27]: -1.16
- interaction score [28]: -0.846
- interaction score [29]: -1.41
- interaction score [30]: -1.16
- interaction score [31]: -1.91
- interaction score [32]: -0.963
- interaction score [33]: -1.29
- interaction score [34]: -1.46
- interaction score [35]: -1.82
- interaction score [36]: -1.52
- interaction score [37]: -1.57
- interaction score [38]: -1.87
- interaction score [39]: -1.8
- interaction score [40]: -1.47
- interaction score [41]: -1.07
- interaction score [42]: -1.68
- interaction score [43]: -0.519
- interaction score [44]: 2.39
- interaction score [45]: -1.42
- interaction score [46]: -1.46
- interaction score [47]: -0.951
- interaction score [48]: -0.519
- interaction score [49]: -0.999
- interaction score [50]: -1.41
- interaction score [51]: -2.07
- interaction score [52]: -0.658
- interaction score [53]: -1.49
- interaction score [54]: -0.932
- interaction score [55]: -1.23
- interaction score [56]: -0.763
- interaction score [57]: -1.95
- interaction score [58]: -1.33
- interaction score [59]: -1.1
- interaction score [60]: -0.897
- interaction score [61]: -0.706
- interaction score [62]: -1.23
- interaction score [63]: -1.5
- interaction score [64]: -1.56
- interaction score [65]: -1.74
- interaction score [24]: -1.17
- interaction score [66]: -1.3
- interaction score [67]: -1.81
- interaction score [68]: -1.42
- interaction score [69]: -1.27
B2: 4H1636-AA (peptide)
chain: DENAALKAEIAALKAKIAALEAENAALKG
